According to PMC5648539:

Target: FLAG-tagged human CXCR4, wild type (human) (UniProt P61073)
Sequence (P61073 whole entry): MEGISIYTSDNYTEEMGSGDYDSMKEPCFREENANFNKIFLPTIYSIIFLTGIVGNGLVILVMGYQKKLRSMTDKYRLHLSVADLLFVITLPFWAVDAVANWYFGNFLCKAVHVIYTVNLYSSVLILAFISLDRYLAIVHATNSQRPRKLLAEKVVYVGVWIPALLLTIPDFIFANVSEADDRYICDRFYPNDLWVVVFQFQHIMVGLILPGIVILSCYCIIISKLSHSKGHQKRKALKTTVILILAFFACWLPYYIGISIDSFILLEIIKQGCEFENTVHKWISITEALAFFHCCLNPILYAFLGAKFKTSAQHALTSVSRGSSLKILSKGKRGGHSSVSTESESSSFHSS

| Ca2+ flux dose response (printed as Kd) [µM] | Ca2+ flux response (potency) [µM] | Substance |
| --- | --- | --- |
| 0.021 | – | CXCL12 with Asn33 mutated to glutamic acid (from UniProt P48061-2 22-89) (ligand) |
| – | 0.095 | CXCL12(R12A) (from UniProt P48061-2 22-89) (ligand) |
| – | 0.11 | CXCL12(R8A) (from UniProt P48061-2 22-89) (ligand) |
